Measurements as given in the DeepSol protein solubility set.

test: soluble on expression in E. coli; label from the status in PepcDB or PDB records

Soluble on expression in E. coli, not soluble:
MGSDKIHHHHHHMGNVIVVTSGKGGVGKTTITANLGCALAKLGEKVCLIDADIGLKNLDIVLGLENRIVYTMIDVVNGKVSPQEALVKHKMLKNLYLLPASQIATKEMISPNDMKAIVKELIPHFDYIIIDSPAGIERGFRNAVAPAERVLVVTTPELPAISDADRVIGLLENFGFSDEKINVIINRFKPHMVKKGEMLTTDDIKHTLSLEIIAVIPDSEDIIVASNTGIPVSLNGNSRISKNFENLARRIRGEGVPLENDFVTVSKGLIDTLKDFFSKLKRG, MGSDKIHHHHHHMGTAKGNITNWTQYNQVLTQRGSLTFWMDDAAIKHWYNQHPSGRQGRSNTYSDSAISTALMIKGVFKLPLRALYGFINSLFRLMDVDLKSPDYSCISKRAKTVEVNYRLRSKGPARHILIDATGLKVFGEGEWKIRKHGKEKRRIWRKMHLAVDADTREIVSAVASLDNVHNSEVIPTLINPLRCKIKQVSADGAYDTKHCYAVLQRKGITAIIPSRKNAGYRRGEQPRNEAVDALKERSVSLVEA, MGSDKIHHHHHHMGTFFVDFYNEYPDTSYIKIPTNPLDRVIGQDDAVKIAMVAAKQRRHLLLVGPPGVGKSMIAQAMSFYIDRPTEEIRVVHNPQYPERPFVEIKTREEVMAEREEETSTSGIIIDPKDAPTSVAERLGYRCSKCGFYSSPSDAVCPNCNSPKIQMGTQGPFGDVFNVIGAAFGVQNNLDKVTLTRRNGDHDEIIVYERYNDKIRVLDEKTLERRRRLEKKSPSKTIVPIDRNPFVLATGASETELLGDVRHDPYGGHPQLGTLPYERVIAGAVHEAHQGVLFIDEITHLGNLQRYILTAMQEKTFPITGRNPQSAGASVRVDKVPADFILVAACNINDLPYILSPLRSRIVGNGYEILMKTTMKDTDENRMKYLQFISQEITMDGKIPHMTMEAAELIIEEGKKRARIIDKKNNELTLRLRELGGLIRAAGDIAVFKGNKLIEKEDVEEAIKLYVPVEEKITKEYGSMAAAYSSENTTSQKDFYNYNLDDRSYE, MGSDKIHHHHHHMGVTCVSQMPVAEGKSVQQTVELLTRKLEMLGAEKQGTFCVDCETYHTAASTLGSQGQTGKLMYVMHNSEYPLSCFALFENGPCLIADTNFDVLMVKLKGFFQSAKASKIETRGTRYQYCDFLVKVGTVTMGPSARGISVEVEYGPCVVASDCWSLLLEFLQSFLGSHTPGAPAVFGNRHDAVYGPADTMVQYMELFNKIRKQQQVPVAGIR, MGSDKIHHHHHHMGYVAVRGGSEAISRAEELVTCLRLLGGSTPLQLPQIRDQLRHAVSRAMHEGALYAPLLAALALKQAEGDSIEAAFLLRAYRTTLPRVMASLPASGRDISCLRRISASFKDIPGGQILGPASDYLIRLLQPDLAHETIVDVARAAEQYAALVEKGGIRSGEWGRFPKVADYMRQEQMIVDIPADSEETEPFDITREPLVFPCPRSARLQALMQADTGSLMCLAYSSVRGYGDAHPALVELRYGYLAIQVAHPLTGEPITIGEIEVTETEVASKAHSVTSRTGTPRFNVGYGFAFGQSELKTMSMAILDSVLTQARAGSLAGESGPAADEEFVLLHTDGIEASGFVAHFKLPHYVTFAADLSVLDRARDHHAQQQSRLHQLVDQALTE, MGSDKIHHHHHHMHAIGFTDHLPIEDPASLRDVTISKPSAQGHDLLVQVQAVAVNPVDVSVRKTGHEHRMRPKILGWDATGIVTAVGEAVTLFQPGDHVFYAGSFRRPGCDSAYHLVDERLVGHAPATLTTAARAAMPLTSLTAYEALFEQLHIPFDPAKPNSEKCNQTILIINGAGGVGSIATQLAKLAGLTVISSASRPESIAWTQQHGADLVVNHHHDLVSEVHALGIKDVDYILGLSDLDSHWNEICTLIKPGGHIASITENRRPIDLKKLTKKRGTFAWEWMYSKSYYHTADMISQHDILETIADLLDRGLLQSTLSQTLRPINALNLRQAHQLIEQHHMIGKVVIEGWE, MGSDKIHHHHHHMHFIMMKLFRVVKRGYYISYAILDNSTIIRLDEDPIKALMRYSENKEVLGDRVTGIDYQSLLKSFQINDIRITKPIDPPEVWGSGISYEMARERYSEENVAKILGKTIYEKVYDAVRPEIFFKATPNRCVGHGEAIAVRSDSEWTLPEPELAVVLDSNGKILGYTIMDDVSARDLEAENPLYLPQSKIYAGCCAFGPVIVTSDEIKNPYSLDITLKIVREGRVFFEGSVNTNKMRRKIEEQIQYLIRDNPIPDGTILTTGTAIVPGRDKGLKDEDIVEITISNIGTLITPVKKRRKIT, MGSDKIHHHHHHMHKFNPDRIQIGISACLLGEQVRFDGGHKNSAYCQQELKPHFDFVPVCPEMAIGLGAPRKSIRQVRIEGEIRVRSADGSIDVTEQLQSFCNNKADGLGFLGGYLFCSKSPTCGMERVPVYKADGSGGFKEGVGVFAAALMKRFPHLPVEEEGRLHDLVIRENFFTRVYAYHDWHCMRLKGLTRKALTDFHARYKYLLLSHSPAIYRTLGPLLAGDGELEAVADSYFDGFMTALRHKASRRNHTSALQHIQGYFKKFLSGSQKAELSDAILAYRQGVQPLLVPITLIRHYLREHPNDYIAAQVYLNPHPDSLRLRYAY, MGSDKIHHHHHHMHLSNSPNSHDPDAQARFWFARQQGQTLSEAEQQQLAEWLAANPLHQDAWRRVEEDWLAIDRYRHALNDELKKARRNRPGQHKAAFQLKRRAAAAALLVAVCIPVLYQGMTGTTTYWNTLKGEQQQITLAGGSTLNLDTATRITVTQNWFTHHVQLHEGEIYLETASSDWHTLRVSAEHYEIRDIGTRFSVRYIPDQFMVEVAEGTVEVKKQGQLVLLQAGEVLSIITGSNEWRLAALPAGDIAHWRKGLLVFNAHRLHDVLHEIARYHTVQFDLADSAIGEIQVSGRFKLDELDTNLQIIADTLKINIEHPAPGRYRLGALRQSTR, MGSDKIHHHHHHMHQTILHAFSQHAASCYPNECCGLLIRQGNKAQYVKCENKATNKADEFVIDPQQYADIEELGAIIGICHSHPDASSKPSDRDRAMCEASGLPWHILSWPDGDLRTIVPTGERKSLLNRPFVHGVWDCYSCVRDWYSEVQQIHLPDFARQDGWWEGEQELYLDNFAKAGFVALPNINLADLQIGDVFLMQIQSQRVNHAAVYVGEGKILHHLYGRLSRYDIYGGYWQRNTRLIVRHCQ, MGSDKIHHHHHHMHSKTFGDVSIDEMVSRIKEFILKDNNCNYKITIGTDSQNKNLTKVVVVVAIHRIGSGGIFFYDIKHVHKISNVRQKIYYETALSLELASKVSHAFAEANIQEDIEIHADIGSNRKGKTYPLINEITGWITGEGYKYQIKPYSYAASCIADKISK, MGSDKIHHHHHHMHTDINALFAALWQDYIQMTPSAAKVHALLGHGKPIINDHIALRTFNIAKVNLDVLAKHFTSLGYVACGDYKFEQKKLVAKHFEHPDSTQPKVFISELLVEEFSPALQATIQGLIAQVDVAATTADNFIYSGRHWSLDSQTYEDLLAESEYAAWVAAFGYRANHFTVSINHLDGFDTLESVNNALKQAGFVLNSSGGEIKGSPEVLLEQSSTMADKIGVEFTNATVEIPSCFYEFALRYPMANGELYTGFVAASADKIFESTNVNKA, MGSDKIHHHHHHMHVDIELPLGRATALQRLRAQGFCVLTPAALETLTGMPLDAFDMMLPYWEELAPDLHLKDGGHYRYRRHGCFMQTLQPGQLETVQHRAHWQPTTYNALHGGMERWFEPLSNEMIHLPSWSALLVALGELFAKLRAPQGGRWYIEAHPFRIDTEGGVGRPTPEGAHRDGVDFVAVVFIGRQGVRGGETRVFDAAGPQGVRFTLEQPWTVLLLDDQQVIHESTPLLPLDPADPAVPAHRDTLVLTYRSGGFQAPA, MGSDKIHHHHHHMHYLPFIRVVMNTADEDAQMERDEWASREVMPITNWGRRPDGSEIVQYDAPMFFSFTEHSLLHQYPHMRAECHWHVDLELTYIIHGHMWYFVNGETVRLDEGQAIFVNSRQLHYGFTKDGSDCEFSCTLLNPAKMCASFEVYDRFIAPLMAENTMPYAVITDDTAPGRRLLATIRQLHAAKFGPLERSERSAEPLPADDMTLTDNTEALTVLSCFYAVVRDILAIAGSHCATSTAPHPRIVTLRKMIDYVQRYYVRPITLKQIASAGSVGRTTCASIFRESLNQSPIEFVNDVRVRAAANLLVTSSLPIATVAKQTGFSSASFFSRTFHRFMGVTPITYRTTHTKRKSEE
